In the supplement of paper PMC10065799, “High-throughput profiling of sequence recognition by tyrosine kinases and SH2 domains using bacterial peptide display” (eLife, 2023):

Tests used:
AncSZ = assay: phosphorylation enrichment, bacterial display (enrichment ratio); higher = better substrate or ligand; peptides without Tyr show the background
EPHB1 = EPHB1 (UniProt P54762); assay: as above
EPHB2 = EPHB2 (UniProt P29323); assay: as above
FGFR1 = FGFR1 (UniProt P11362); assay: as above
FGFR3 = FGFR3 (UniProt P22607); assay: as above
Fer (mouse) = assay: as above
Fes = Fes (UniProt P07332); assay: as above
Fyn = Fyn (UniProt P06241); assay: as above
Hck = Hck (UniProt P08631); assay: as above
Jak2 = Jak2 (UniProt O60674); assay: as above
MERTK = MERTK (UniProt Q12866); assay: as above
c-Abl (mouse) = assay: as above
c-Src = assay: as above
Grb2 SH2 = Grb2 SH2 (UniProt P62993); assay: SH2 binding enrichment of the phosphorylated peptide, bacterial display (enrichment ratio); higher = better substrate or ligand; peptides without Tyr show the background
SHP2-C SH2 = assay: as above
c-Src SH2 = assay: as above
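Wherever SH2 binding enrichment of the phosphorylated peptide, bacterial display is given: peptide library displayed on the E. coli surface as eCPX fusions, selected cells deep-sequenced, score is each peptide's frequency after selection divided by its frequency in the input.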
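Wherever phosphorylation enrichment, bacterial display is given: 11-residue human phosphosite peptides and single-mutation variants displayed on the E. coli surface, counted by deep sequencing, each peptide's frequency after selection divided by its frequency in the unselected input library; frequency after pTyr selection over input frequency; kinase dosed for 20-30% of maximal phosphorylation in three min.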

Chain of EPHB1 (P54762 whole entry, looked up): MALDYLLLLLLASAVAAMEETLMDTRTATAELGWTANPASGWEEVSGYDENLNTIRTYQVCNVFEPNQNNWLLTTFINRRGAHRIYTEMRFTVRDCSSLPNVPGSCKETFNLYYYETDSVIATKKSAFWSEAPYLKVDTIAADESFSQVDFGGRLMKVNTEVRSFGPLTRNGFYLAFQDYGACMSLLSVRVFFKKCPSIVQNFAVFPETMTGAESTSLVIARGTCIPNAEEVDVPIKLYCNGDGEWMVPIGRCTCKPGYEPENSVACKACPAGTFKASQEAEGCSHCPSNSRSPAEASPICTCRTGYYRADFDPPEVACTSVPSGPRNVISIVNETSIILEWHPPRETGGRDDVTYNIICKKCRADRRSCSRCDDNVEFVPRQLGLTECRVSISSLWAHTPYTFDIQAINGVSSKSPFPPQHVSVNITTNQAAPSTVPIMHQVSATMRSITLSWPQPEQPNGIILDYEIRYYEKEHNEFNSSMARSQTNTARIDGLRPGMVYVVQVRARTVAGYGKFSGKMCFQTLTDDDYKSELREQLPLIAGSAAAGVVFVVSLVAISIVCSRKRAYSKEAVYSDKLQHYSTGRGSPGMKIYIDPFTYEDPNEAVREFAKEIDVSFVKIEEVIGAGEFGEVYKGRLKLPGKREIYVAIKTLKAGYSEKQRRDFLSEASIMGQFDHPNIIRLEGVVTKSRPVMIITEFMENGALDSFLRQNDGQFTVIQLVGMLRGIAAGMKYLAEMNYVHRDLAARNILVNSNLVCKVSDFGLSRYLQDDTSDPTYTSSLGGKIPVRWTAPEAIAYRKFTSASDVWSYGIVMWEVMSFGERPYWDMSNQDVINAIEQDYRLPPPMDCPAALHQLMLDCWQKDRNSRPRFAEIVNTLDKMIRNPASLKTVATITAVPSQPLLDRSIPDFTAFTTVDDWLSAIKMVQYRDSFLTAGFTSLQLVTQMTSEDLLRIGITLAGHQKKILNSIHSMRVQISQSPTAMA
Chain of MERTK (Q12866 whole entry, looked up): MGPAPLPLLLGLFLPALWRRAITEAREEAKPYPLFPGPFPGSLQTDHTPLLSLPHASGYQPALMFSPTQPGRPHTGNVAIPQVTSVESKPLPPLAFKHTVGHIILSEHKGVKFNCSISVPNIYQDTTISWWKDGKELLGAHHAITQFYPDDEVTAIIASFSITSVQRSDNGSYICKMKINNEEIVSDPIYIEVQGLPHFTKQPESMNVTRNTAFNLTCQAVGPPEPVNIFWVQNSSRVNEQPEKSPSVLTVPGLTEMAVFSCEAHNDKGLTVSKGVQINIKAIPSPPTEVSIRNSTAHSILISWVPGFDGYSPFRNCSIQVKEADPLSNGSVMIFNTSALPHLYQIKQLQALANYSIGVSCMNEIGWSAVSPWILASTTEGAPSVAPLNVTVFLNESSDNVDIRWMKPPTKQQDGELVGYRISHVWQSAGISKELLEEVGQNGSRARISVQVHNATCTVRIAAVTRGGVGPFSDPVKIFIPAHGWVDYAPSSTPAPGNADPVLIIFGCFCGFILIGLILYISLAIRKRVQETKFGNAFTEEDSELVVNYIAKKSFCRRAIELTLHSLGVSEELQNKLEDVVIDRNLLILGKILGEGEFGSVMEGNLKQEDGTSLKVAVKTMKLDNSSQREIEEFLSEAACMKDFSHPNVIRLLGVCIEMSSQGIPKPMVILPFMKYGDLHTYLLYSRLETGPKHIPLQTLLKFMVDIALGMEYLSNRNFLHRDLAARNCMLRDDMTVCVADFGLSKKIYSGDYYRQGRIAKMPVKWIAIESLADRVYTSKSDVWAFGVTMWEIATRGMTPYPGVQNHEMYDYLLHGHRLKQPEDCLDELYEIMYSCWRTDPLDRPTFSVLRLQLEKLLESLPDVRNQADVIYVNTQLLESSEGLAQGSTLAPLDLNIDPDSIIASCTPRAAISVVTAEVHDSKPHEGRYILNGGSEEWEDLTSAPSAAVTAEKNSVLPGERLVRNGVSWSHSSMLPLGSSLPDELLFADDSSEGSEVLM
Chain of FGFR3 (P22607 whole entry, looked up): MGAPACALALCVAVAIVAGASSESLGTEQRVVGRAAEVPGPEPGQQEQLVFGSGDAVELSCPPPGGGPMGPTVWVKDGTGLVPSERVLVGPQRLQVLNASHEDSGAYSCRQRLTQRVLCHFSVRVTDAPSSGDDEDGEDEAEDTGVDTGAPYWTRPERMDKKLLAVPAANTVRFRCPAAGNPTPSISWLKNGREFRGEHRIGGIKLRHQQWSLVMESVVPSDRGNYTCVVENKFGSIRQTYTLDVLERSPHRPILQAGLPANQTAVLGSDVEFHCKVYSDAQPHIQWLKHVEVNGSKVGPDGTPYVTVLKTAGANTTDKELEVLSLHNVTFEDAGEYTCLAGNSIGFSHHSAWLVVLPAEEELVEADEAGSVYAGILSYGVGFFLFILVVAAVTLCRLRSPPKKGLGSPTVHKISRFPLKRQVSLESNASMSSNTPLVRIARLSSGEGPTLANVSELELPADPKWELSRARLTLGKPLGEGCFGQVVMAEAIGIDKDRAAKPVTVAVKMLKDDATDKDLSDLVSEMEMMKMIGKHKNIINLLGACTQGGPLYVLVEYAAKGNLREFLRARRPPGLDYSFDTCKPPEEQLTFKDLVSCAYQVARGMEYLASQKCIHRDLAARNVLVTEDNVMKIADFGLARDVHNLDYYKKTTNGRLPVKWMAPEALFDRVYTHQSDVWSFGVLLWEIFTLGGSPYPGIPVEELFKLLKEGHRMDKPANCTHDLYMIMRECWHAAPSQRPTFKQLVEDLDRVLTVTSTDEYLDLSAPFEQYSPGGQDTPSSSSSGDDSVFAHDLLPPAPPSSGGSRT
Chain of Fes (P07332 whole entry, looked up): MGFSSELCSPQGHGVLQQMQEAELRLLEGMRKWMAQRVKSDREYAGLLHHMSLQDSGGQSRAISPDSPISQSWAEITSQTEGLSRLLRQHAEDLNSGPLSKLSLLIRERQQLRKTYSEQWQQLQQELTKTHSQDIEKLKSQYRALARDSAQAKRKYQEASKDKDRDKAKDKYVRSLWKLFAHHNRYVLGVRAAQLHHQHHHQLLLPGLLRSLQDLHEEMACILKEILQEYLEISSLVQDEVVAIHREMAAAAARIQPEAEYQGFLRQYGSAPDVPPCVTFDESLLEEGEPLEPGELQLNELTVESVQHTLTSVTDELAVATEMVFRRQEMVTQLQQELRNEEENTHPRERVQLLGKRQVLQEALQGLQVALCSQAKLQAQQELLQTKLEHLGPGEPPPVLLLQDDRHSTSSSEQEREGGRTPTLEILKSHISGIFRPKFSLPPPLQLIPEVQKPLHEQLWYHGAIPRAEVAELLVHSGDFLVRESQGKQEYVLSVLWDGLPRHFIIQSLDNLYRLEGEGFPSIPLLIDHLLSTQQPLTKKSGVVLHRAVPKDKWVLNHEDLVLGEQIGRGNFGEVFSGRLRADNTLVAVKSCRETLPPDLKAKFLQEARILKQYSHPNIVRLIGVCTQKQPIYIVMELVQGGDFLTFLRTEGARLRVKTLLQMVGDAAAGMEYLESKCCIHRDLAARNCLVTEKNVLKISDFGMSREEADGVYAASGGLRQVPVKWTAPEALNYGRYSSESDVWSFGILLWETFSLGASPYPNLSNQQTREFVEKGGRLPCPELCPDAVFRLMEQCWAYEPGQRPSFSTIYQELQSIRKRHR
Chain of Fyn (P06241 whole entry, looked up): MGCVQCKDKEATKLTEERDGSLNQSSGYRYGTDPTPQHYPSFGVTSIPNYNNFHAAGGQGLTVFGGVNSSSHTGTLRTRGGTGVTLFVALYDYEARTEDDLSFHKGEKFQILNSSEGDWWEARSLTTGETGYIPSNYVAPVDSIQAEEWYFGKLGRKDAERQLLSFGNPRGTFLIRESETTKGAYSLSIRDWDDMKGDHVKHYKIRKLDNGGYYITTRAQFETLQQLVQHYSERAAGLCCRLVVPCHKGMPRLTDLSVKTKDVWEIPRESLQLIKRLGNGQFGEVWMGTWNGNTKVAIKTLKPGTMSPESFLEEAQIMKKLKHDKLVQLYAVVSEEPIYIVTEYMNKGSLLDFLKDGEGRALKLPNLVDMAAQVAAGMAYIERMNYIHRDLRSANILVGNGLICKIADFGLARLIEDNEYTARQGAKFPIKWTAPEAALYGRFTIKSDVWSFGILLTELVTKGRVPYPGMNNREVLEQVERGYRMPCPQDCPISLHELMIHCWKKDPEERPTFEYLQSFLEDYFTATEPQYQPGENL
Chain of Hck (P08631 whole entry, looked up): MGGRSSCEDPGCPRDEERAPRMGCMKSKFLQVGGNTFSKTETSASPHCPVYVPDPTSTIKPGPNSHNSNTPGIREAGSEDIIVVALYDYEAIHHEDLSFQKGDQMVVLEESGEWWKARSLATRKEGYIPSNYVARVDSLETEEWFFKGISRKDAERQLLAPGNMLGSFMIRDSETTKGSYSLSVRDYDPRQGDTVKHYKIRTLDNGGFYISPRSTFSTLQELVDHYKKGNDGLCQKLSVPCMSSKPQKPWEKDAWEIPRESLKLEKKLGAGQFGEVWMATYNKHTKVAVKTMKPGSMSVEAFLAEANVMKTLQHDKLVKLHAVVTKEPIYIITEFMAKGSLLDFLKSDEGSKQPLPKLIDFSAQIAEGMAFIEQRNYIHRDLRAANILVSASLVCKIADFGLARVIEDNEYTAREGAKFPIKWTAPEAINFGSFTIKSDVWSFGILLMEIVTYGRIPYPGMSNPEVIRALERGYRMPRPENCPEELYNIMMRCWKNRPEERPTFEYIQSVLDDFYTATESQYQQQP

| SH2 binding enrichment (Grb2 SH2) | SH2 binding enrichment (SHP2-C SH2) | SH2 binding enrichment (c-Src SH2) | Sequence | phosphorylation enrichment (AncSZ) | phosphorylation enrichment (EPHB1) | phosphorylation enrichment (EPHB2) | phosphorylation enrichment (FGFR1) | phosphorylation enrichment (FGFR3) | phosphorylation enrichment (Fer (mouse)) | phosphorylation enrichment (Fes) | phosphorylation enrichment (Fyn) | phosphorylation enrichment (Hck) | phosphorylation enrichment (Jak2) | phosphorylation enrichment (MERTK) | phosphorylation enrichment (c-Abl (mouse)) | phosphorylation enrichment (c-Src) |
| --- | --- | --- | --- | --- | --- | --- | --- | --- | --- | --- | --- | --- | --- | --- | --- | --- |
| 0.767 | 0.86 | 0.485 | HKANEYFPVVI [ADAMTS18_Y764_L769I_YF] | 1.35 | 0.762 | 0.806 | 11.8 | 5.96 | 0.874 | 0.973 | 0.594 | 0.569 | 2.38 | 0.663 | 1.01 | 0.625 |
| 0.789 | 0.456 | 0.471 | HKLSFNEFDFE [BTK_Y40_Y40N_YF] | 1.61 | 0.829 | 0.859 | 0.795 | 0.882 | 0.788 | 1.58 | 0.834 | 0.918 | 1.53 | 0.712 | 1.02 | 0.864 |
| 0.911 | 0.846 | 3.27 | HKLSFYEFDFE [BTK_Y40_YF] | 1.73 | 0.752 | 0.786 | 1.01 | 1.36 | 0.919 | 1.73 | 1.66 | 0.989 | 2.92 | 1.75 | 1.51 | 1.24 |
| 0.889 | 1.2 | 1.53 | HLDRSYSYSYS [PEAR1_Y890_R885H] | 0.718 | 0.603 | 0.477 | 0.558 | 0.66 | 0.401 | 0.583 | 0.424 | 0.424 | 1.02 | 0.583 | 0.49 | 0.474 |
| 1.03 | 0.624 | 0.474 | HLNLTYRILSF [MMP23B_Y95_F91L] | 1.43 | 0.673 | 0.664 | 0.645 | 1.27 | 0.605 | 1.68 | 0.694 | 0.54 | 1.51 | 0.42 | 1.08 | 0.491 |
| 0.951 | 0.786 | 0.774 | HQIQSYTCEID [DES_Y331] | 0.927 | 0.7 | 0.802 | 0.822 | 0.882 | 0.349 | 1.27 | 0.628 | 0.675 | 1.44 | 0.595 | 0.767 | 0.502 |
| 0.794 | 0.757 | 0.563 | HTLMKYTDGDQ [PUS7L_Y94_I92M] | 1.34 | 1.17 | 0.634 | 0.813 | 0.897 | 0.666 | 1.48 | 0.595 | 0.682 | 1.26 | 0.463 | 1.08 | 0.788 |
| 0.915 | 0.786 | 0.924 | HYEDGYPGGSD [CTNND1_Y221] | 1.75 | 0.796 | 0.762 | 0.819 | 0.945 | 0.908 | 1.28 | 0.799 | 0.629 | 1.44 | 0.852 | 1.12 | 1.13 |
| 0.774 | 0.697 | 0.77 | IAAEFYDNLPH [DEGS1_Y284_YF] | 0.894 | 0.531 | 0.68 | 0.66 | 0.682 | 1.12 | 0.79 | 0.72 | 3.88 | 0.559 | 0.687 | 0.535 | 0.723 |
| 0.865 | 0.696 | 0.54 | IDQDKYAVRFI [FLNA_Y2388] | 0.78 | 0.459 | 0.458 | 0.425 | 0.545 | 0.473 | 0.787 | 0.488 | 0.524 | 0.635 | 0.379 | 0.566 | 0.393 |
| 0.863 | 0.617 | 0.68 | IEDPYYGNDFD [ACP1_Y133_S137F] | 1.65 | 0.832 | 0.859 | 1.6 | 1.7 | 0.786 | 1.47 | 1.65 | 1.02 | 1.43 | 0.513 | 0.93 | 2.94 |
| 0.746 | 0.609 | 10.6 | IETGKYEILTE | 1.18 | 0.684 | 0.601 | 0.519 | 0.78 | 0.703 | 1.34 | 0.429 | 0.478 | 1.14 | 0.585 | 0.807 | 0.495 |
| 0.918 | 0.672 | 0.472 | IFETDYFRKGG [INSR_Y1189_YF] | 0.988 | 0.568 | 0.626 | 0.536 | 0.686 | 0.581 | 0.938 | 0.5 | 0.529 | 0.934 | 0.436 | 0.741 | 0.539 |
| 0.73 | 0.535 | 0.507 | IGEGTYGVVYK [CDK2_Y15] | 0.907 | 2.67 | 7.28 | 0.551 | 0.67 | 1.73 | 0.896 | 10.6 | 7.9 | 0.756 | 2.01 | 0.63 | 5.96 |
| 0.84 | 0.883 | 0.53 | IGEVVYQRAAM [GRIN2A_Y502_V506A] | 0.841 | 0.442 | 0.425 | 0.438 | 0.394 | 0.78 | 0.824 | 0.9 | 1.66 | 0.595 | 0.441 | 5.89 | 1.27 |
| 0.885 | 0.659 | 0.487 | IGHHAYGDQFR [IDH1_Y135_R132H_YF] | 0.63 | 0.444 | 0.417 | 0.414 | 0.477 | 0.371 | 0.618 | 0.346 | 0.381 | 0.503 | 0.397 | 0.516 | 0.373 |
